In patent publication US20250026850A1 (TRISHULA THERAPEUTICS, published 2025):
Positions count from the first letter of the chain named.

T1: human CD39 on cells (human, UniProt P49961 1-510)
T1 construct: One molecule for all cells that carry human CD39; the cell is named under assay; also called hCD39; cellular CD39
T1 sequence: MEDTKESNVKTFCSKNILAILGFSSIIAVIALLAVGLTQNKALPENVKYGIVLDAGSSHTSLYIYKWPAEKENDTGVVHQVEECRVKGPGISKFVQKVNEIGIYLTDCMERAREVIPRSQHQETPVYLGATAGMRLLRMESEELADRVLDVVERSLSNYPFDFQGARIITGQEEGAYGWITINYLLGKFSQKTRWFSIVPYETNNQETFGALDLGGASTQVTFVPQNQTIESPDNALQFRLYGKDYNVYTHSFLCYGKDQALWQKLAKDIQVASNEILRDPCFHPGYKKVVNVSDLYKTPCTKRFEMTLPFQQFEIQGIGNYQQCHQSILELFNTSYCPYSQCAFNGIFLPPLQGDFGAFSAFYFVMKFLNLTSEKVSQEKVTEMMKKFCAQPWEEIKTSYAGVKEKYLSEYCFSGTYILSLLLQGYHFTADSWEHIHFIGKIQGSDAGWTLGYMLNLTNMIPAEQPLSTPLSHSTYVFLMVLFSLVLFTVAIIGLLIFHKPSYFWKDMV

T2: cynomolgus macaque (Macaca fascicularis) CD39 on cells (cynomolgus macaque (Macaca fascicularis), UniProt P49961 7-510 (human entry))
T2 construct: CHO cells engineered to express cyno CD39, or primary cyno B cells and monocytes; also called cyno CD39; cCD39
T2 chain: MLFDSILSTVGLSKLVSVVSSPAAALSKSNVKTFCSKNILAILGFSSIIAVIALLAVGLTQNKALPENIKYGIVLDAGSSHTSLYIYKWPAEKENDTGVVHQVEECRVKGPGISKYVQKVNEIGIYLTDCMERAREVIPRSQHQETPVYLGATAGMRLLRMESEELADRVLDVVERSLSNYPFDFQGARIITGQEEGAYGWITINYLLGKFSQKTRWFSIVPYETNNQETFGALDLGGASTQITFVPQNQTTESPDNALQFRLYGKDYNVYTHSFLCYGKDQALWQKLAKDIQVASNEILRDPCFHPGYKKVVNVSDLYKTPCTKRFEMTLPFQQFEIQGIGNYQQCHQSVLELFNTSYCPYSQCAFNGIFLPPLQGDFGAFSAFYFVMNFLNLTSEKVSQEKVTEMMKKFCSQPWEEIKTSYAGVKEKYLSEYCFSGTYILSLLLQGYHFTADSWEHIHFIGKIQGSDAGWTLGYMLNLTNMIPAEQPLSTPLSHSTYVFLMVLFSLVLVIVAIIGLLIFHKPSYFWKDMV

T3: rhCD39-ECD-His (R&D Systems) (human, UniProt P49961 38-478)
T3 construct: Bought protein; that entry runs on through the C-terminal transmembrane and cytoplasmic residues; also called recombinant human CD39 extracellular domain; soluble recombinant human CD39 (ENTDP1) ECD; not shown: His tag
T3 sequence: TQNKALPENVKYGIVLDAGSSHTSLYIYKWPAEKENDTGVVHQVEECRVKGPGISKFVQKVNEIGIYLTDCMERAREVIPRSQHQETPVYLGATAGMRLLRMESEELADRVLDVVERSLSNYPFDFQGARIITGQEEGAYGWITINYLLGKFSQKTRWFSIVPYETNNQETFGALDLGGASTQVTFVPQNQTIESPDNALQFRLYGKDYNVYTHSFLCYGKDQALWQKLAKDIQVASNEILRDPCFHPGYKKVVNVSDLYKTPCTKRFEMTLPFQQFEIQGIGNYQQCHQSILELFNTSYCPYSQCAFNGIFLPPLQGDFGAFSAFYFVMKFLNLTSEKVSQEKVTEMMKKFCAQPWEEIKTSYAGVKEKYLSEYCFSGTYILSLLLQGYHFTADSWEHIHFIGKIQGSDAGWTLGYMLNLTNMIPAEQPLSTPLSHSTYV

B1: 31436 (antibody, V domains shown)
VH: QVQLVQSGAEVKKPGSSVKVSCKASGGTFSLLAISWVRQAPGQGLEWMGGILPIAGTANYAQKFQGRVTITADESTSTAYMELSSLRSEDTAVYYCARGGAKYAVGYGMDVWGQGTTVTVSS
VL: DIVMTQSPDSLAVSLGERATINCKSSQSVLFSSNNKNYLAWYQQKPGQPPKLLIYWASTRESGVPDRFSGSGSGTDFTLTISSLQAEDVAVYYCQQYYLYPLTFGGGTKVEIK
B2: 31437 (antibody, V domains shown)
VH: B1 VH with S16A, S30Q, L31S, A55G, V105G, G106R
VL: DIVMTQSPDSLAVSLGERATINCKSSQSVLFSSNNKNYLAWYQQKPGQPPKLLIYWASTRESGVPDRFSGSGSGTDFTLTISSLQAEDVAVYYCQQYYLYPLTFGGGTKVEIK
B3: 31901 (antibody, V domains shown)
VH: QVQLVQSGAEVKKPGSSVKVSCKASGGTFSSLPISWVRQAPGQGLEWMGGIGFGTANYAQKFQGRVTITADESTSTAYMELSSLRSEDTAVYYCARGGAKYAGRYGMDVWGQGTTVTVSS
VL: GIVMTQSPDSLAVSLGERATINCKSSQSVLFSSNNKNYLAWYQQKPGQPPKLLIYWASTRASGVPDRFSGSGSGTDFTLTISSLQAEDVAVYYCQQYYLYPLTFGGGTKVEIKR
B4: 31905 (antibody, V domains shown)
VH: B3 VH with S30P, L32N, P33A, G103R, R104T
VL: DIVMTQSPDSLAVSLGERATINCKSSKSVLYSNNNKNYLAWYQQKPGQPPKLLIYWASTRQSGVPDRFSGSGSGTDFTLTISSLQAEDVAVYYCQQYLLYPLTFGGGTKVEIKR
B5: 31393 (antibody, V domains shown)
VH: QVQLVQSGAEVKKPGSSVKVSCKASGGTFESYGISWVRQAPGQGLEWMGSIIPEFGIANYAQKFQGRVTITADESTSTTYMELSSLRSEDTAVYYCARESGGYRDHRLDVWGQGTMVTVSS
VL: EIVMTQSPATLSVSPGERATLSCRASQSVGSNLAWYQQKPGQAPRLLIYGASTRATGIPARFSGSGSGTEFTLTISSLQSEDFAVYYCQQYLLWPLTFGGGTKVEIKR
B6: 31873 (antibody, V domains shown)
VH: B5 VH with E30S, S31K, T79A, D109G
VL: B5 VL with T56S
B7: 31861 (antibody, V domains shown)
VH: B5 VH with E30G, T79A, G102T
VL: B5 VL

Each binder was assayed against T1, human CD39 on cells (assay: flow cytometry, 100 nM IgG, hCD39-CHO cells; MFI ratio to parental CHO).
Procedure: (§1) 100 nanomolar IgGs (each antibody is indicated as a unique clone number in the FIG.) were incubated at […] 30 minutes on ice in phosphate buffered saline (PBS) with parental CHO cells or CHO cells engineered to express either human or cynomolgus macaque (Macaca fascicularis) CD39 (CHO CD39 cells). Cells were then washed with ice cold PBS and incubated with a fluorescently labeled goat-anti-human IgG for 20 minutes on ice. Cells were washed and resuspended in ice cold PBS prior to analysis by flow cytrometry.
For B1, the “Cell Binding (FOB)” value was 1320 FOB.
With B2 the “Cell Binding (FOB)” value was 1290 FOB.
For B3, the “Cell Binding (FOB)” value was 1110 FOB.
For B4, the “Cell Binding (FOB)” value was 1080 FOB.
In the case of B5, the “Cell Binding (FOB)” value is reported as 1060 FOB.
B6 was tested, and the “Cell Binding (FOB)” value was 1320 FOB.
With B7 the “Cell Binding (FOB)” value was 1430 FOB.

The binders below were run against T1, human CD39 on cells (assay: flow cytometry on MEL-28 cells, anti-human IgG secondary, Prism fit; unit from the x axis).
Procedure: (§2) Cells were washed 3 times in FACS buffer (PS, 2% FBS, and 2 mM EDTA) and next incubated with secondary antibody (goat anti-human IgG Southern Biotech) at 1:100 for 30 minutes at 4 degrees C. Cells were washed, resuspended in FACS buffer, and analyzed for binding by flow cytometry analysis on BD Celesta.
B2 gave an EC50 of 0.368 µg/mL.
Work on B3 yielded an EC50 of 0.102 µg/mL.
B4 gave an EC50 of 0.159 µg/mL.

These binders were tested against T1, human CD39 on cells (assay: flow cytometry on 721 cells, anti-human IgG secondary, Prism fit; unit from the x axis).
Procedure: as §2
For B2, the EC50 was 7.46 µg/mL.
With B3 the EC50 was 0.851 µg/mL.
B4 was tested, and the EC50 was 2.63 µg/mL.

Target: T2, cynomolgus macaque (Macaca …)
Experiment: flow cytometry, 100 nM IgG, cCD39-CHO cells; MFI ratio to parental CHO
Procedure: as §1
With B1 the “Cell Binding (FOB)” value was 3570 FOB.
With B2 the “Cell Binding (FOB)” value was 3640 FOB.
B3 was tested, and the “Cell Binding (FOB)” value was 4660 FOB.
With B4 the “Cell Binding (FOB)” value was 4940 FOB.
B5 was tested, and the “Cell Binding (FOB)” value was 2960 FOB.
B6 was tested, and the “Cell Binding (FOB)” value was 5080 FOB.
B7 was tested, and the “Cell Binding (FOB)” value was 5480 FOB.

Target: T2, cynomolgus macaque (Macaca …)
Experiment: flow cytometry on cyno PBMC, gated B cells, anti-human IgG PE, Prism fit; unit from the x axis
Procedure: (§3) EC50 was calculated using GrapPad Prism software. […] B cells were gated using FlowJo software and ECsos were calculated using GraphPad Prism.
(§4) B cells were isolated from human donor leukopak using EasySep B cell isolation kit ([…] Technologies). Cyno monocytes were purified from fresh cyno blood using NHP CD14 positive selection kit (Miltenyi) and flow through was collected and stained with CD4, CD8, CD20, CD16, and CD3 antibodies (BD). […] Cell were washed 3 times in FACS buffer (PS, 2% FBS, and 2 mM EDTA) and incubated with secondary antibody (mouse anti-human IgG southern biotech) at 1:100 for 30 minutes at 4 degrees C. Cells were washed 2 times in FACS buffer and resuspended in FACS buffer and analyzed on BD Celesta.
With B2 the EC50 was 0.108 µg/mL.
Work on B3 yielded an EC50 of 0.124 µg/mL.
Work on B4 yielded an EC50 of 0.124 µg/mL.

These binders were tested against T1, human CD39 on cells (assay: flow cytometry on purified human B cells, anti-human IgG-PE, Prism fit; unit from the x axis).
Procedure: as §3, §4
B2 showed an EC50 of 0.109 µg/mL.
B3 was tested, and the EC50 was 0.0438 µg/mL.
B4 was tested, and the EC50 was 0.0805 µg/mL.

These binders were tested against T1, human CD39 on cells (assay: flow cytometry on purified human CD4+CD25+CD127dim Treg cells, anti-human IgG secondary, Prism fit; unit from the x axis).
Procedure: Treg cells were isolated from human donor leukopak using CD4⁺CD25⁺CD127^dim regulatory T cell isolation kit II (Miltenyi). […] Cell were washed 3 times in FACS buffer (PS, 2% FBS, and 2 mM EDTA) and incubated with secondary antibody (mouse anti-human IgG southern biotech) at 1:100 for 30 minutes at 4 degrees C. Cells were washed 2 times in FACS buffer, resuspended in FACS buffer and analyzed on BD Fortessa.
B3 showed an EC50 of 519 pM.
B4 was tested, and the EC50 was 735 pM.

These binders were tested against T3, rhCD39-ECD-His (R&D Systems) (assay: BLI (Octet), IgG on anti-human Fc sensor, rhCD39-ECD-His 10-300 nM, 1:1 fit).
Procedure: The kinetic data was globally fit with a simple 1:1 Langmuir binding model to yield on-rate (kon) and off-rate (koff) values. The equilibrium dissociation constants (KD) were calculated from the kon and koff values.
Binding kinetics were measured using the Octet Red96 system (ForteBio) at 25° C. in running buffer (1× Pall ForteBio Kinetics Buffer diluted into PBS or Tris pH 7.4). […] After a short baseline step in running buffer, the sensors were exposed to varying concentrations (10-300 nM) of rhCD39-ECD-His (R&D Systems) for the association step. Dissociation of the complex was monitored upon exposure of the sensors to running buffer once again. Data was processed using ForteBio Octet software with baseline subtraction, global fit and 1:1 binding model to obtain association and dissociation rates. KD was calculated from the ratio of kd to kₐ.
For B1, the Kd was 924 pM, the koff was 0.000243 s⁻¹ and the kon was 263000 M⁻¹ s⁻¹.
B2 showed a Kd of 558 pM, a koff of 0.000213 s⁻¹ and a kon of 382000 M⁻¹ s⁻¹.
B3 was tested, and the Kd was 128 pM, the koff was 0.000132 s⁻¹ and the kon was 1.03e+06 M⁻¹ s⁻¹.
With B4 the Kd was 73.1 pM, the koff was 0.000111 s⁻¹ and the kon was 1.52e+06 M⁻¹ s⁻¹.
B5 showed a Kd of 672 pM, a koff of 0.0002 s⁻¹ and a kon of 298000 M⁻¹ s⁻¹.
For B6, the Kd was 922 pM, the koff was 0.000286 s⁻¹ and the kon was 311000 M⁻¹ s⁻¹.
With B7 the Kd was 1160 pM, the koff was 0.000286 s⁻¹ and the kon was 246000 M⁻¹ s⁻¹.
